Biological target: Mtb ClpB M-domain motif 2 protein (residues 467–518) (Mycobacterium tuberculosis, UniProt P9WPD1 467-518)
Assay: ITC

Mtb ClpB M-domain motif 2 protein (residues 467–518), sequence (P9WPD1 467-518): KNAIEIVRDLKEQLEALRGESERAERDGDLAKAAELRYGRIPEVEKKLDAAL

B1: Mtb DnaK NBD (residues 1–359) (domain or fragment)
chain: MARAVGIDLGTTNSVVSVLEGGDPVVVANSEGSRTTPSIVAFARNGEVLVGQPAKNQAVTNVDRTVRSVKRHMGSDWSIEIDGKKYTAPEISARILMKLKRDAEAYLGEDITDAVITTPAYFNDAQRQATKDAGQIAGLNVLRIVNEPTAAALAYGLDKGEKEQRILVFDLGGGTFDVSLLEIGEGVVEVRATSGDNHLGGDDWDQRVVDWLVDKFKGTSGIDLTKDKMAMQRLREAAEKAKIELSSSQSTSINLPYITVDADKNPLFLDEQLTRAEFQRITQDLLDRTRKPFQSVIADTGISVSEIDHVVLVGGSTRMPAVTDLVKELTGGKEPNKGVNPDEVVAVGAALQAGVLKGE
In the case of B1, the “stoichiometry N” value is reported as about 1.

Reference: PMC8209680 (Cell reports, 2021)
